Data on 1 substance can be found in paper PMC2760748.

The subject of one data set is GST-p53. Kind of data set: DNA-protein ELISA. As to conditions: EMSA: 100 ng p53 (or 5 ug KB nuclear extract), 3 ng probe, 30 min at RT, 4% native PAGE with 0.5x TBE, buffer per ref [25]; ELISA: p53 in PBS on PAb421, 0.5 ug …. For orientation: Mobility shift assays separate free from complexed probe on a gel.
Another data set relates to His-p53. Kind of data set: DNA-protein ELISA. To be noted: EMSA: 100 ng p53 (or 5 ug KB nuclear extract), 3 ng probe, 30 min at RT, 4% native PAGE with 0.5x TBE, buffer per ref [25]; ELISA: p53 in PBS on PAb421, 0.5 ug ….

Consider biotin-p21-5'-DBS, for which the binding signal (% protection of DBS binding) with GST-p53 and in the data set on His-p53 was 60 in each case.
